In the assay the target is Toll-like receptor 4 (TLR4) on monocyte-derived iDC. Description: cell-based or functional assay.

Where no end group is shown, it is not given here. [ ]: non-standard residue; d: D form.

B1: All-D-TTNYT (RAP-103) (peptide)
peptide: [dT][dT][dN][dY][dT]
With B1, the “IC50 for inhibition of LPS (100 ng/mL) induced TNF-α secretion in monocyte-derived iDC (ELISA of supernatants, FIG. 5)” value was ~0.1 pM.

For the origin of these results see US20140323393A1 (CREATIVE BIO PEPTIDES, published 2014).
